Measurements as given in paper PMC9898758, “Analysis of a degron-containing reporter protein GFP-CL1 reveals a role for SUMO1 in cytosolic protein quality control” (The Journal of Biological Chemistry, 2022).

Target: T1, MBP-Slx5 (UniProt P32828 1-619)
T1 construct: Plasmid was a gift from Dr Oliver Kerscher; also called MBP-tagged SLX5; source: E. coli Rosetta, purified (amylose resin)
T1 sequence (looked up): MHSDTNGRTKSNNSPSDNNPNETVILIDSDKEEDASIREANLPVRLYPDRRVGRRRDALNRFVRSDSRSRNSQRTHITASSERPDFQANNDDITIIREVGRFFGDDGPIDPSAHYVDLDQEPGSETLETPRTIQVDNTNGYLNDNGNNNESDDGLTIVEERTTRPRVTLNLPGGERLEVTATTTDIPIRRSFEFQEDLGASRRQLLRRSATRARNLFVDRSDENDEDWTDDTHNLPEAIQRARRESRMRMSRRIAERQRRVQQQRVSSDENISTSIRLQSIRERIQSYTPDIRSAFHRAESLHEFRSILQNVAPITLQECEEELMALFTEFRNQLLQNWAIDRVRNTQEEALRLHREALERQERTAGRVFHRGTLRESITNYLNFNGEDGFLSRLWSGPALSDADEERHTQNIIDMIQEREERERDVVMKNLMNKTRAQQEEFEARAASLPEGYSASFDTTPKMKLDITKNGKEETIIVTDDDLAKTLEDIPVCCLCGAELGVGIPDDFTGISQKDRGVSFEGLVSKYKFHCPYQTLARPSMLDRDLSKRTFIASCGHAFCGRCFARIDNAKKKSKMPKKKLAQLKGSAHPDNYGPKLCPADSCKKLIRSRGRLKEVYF
Assay: pull-down; MBP-Slx5 or MBP alone immobilised on amylose beads, incubated with purified GST, GST-Smt3 or GST-Smt3-K38/40A; washes, SDS-PAGE, immunoblot with anti-MBP and anti-GST
Conditions: both partners purified

fold reduction in binding against WT Smt3: > 5 fold
B1: GST-tagged Smt3-K38/40A mutant (natural protein, S. cerevisiae)
chain: EVKPEVKPETHINLKVSDGSSEIFFAIAKTTPLRRLMEAFAKRQGKEMDSLRFLYDGIRIQADQTPEDLDMEDNDIIEAHREQIGG
notes: Smt3 of S. cerevisiae with K38A and K40A; SMT3^K38/40A cloned into pGEX-6p-1; also called GST-SMT3^K38/40A; GST-Smt3-K30/40A; source: E. coli Rosetta, purified (Glutathione Sepharose 4B)
